From article PMC2916701 (Molecular cell, 2010)
“And” between values parts separate entries of the source, which are not always exact repeats. Equal values may be shown once.

B1: His6-Cdc15(F-BAR) (amino acids 19-295) (domain or fragment, S. pombe, UniProt Q09822 19-295, looked up)
chain: SVKFRDNFWGSEDAGMDALMSRTKSSLSVLESIDEFYAKRASIEREYASKLQELAASSADIPEVGSTLNNILSMRTETGSMAKAHEEVSQQINTELRNKIREYIDQTEQQKVVAANAIEELYQKKTALEIDLSEKKDAYEYSCNKLNSYMRQTKKMTGRELDKYNLKIRQAALAVKKMDAEYRETNELLLTVTREWIDRWTEVCDAFQHIEEYRLEFLKTNMWAYANIISTACVKDDESCEKIRLTLENTNIDEDITQMIQNEGTGTTIPPLPEFND
B2: hyperphosphorylated Cdc15-TAP (natural protein, S. pombe, UniProt Q09822 1-927, looked up)
chain: MEVNGVSQSEAAPYVTKSSVKFRDNFWGSEDAGMDALMSRTKSSLSVLESIDEFYAKRASIEREYASKLQELAASSADIPEVGSTLNNILSMRTETGSMAKAHEEVSQQINTELRNKIREYIDQTEQQKVVAANAIEELYQKKTALEIDLSEKKDAYEYSCNKLNSYMRQTKKMTGRELDKYNLKIRQAALAVKKMDAEYRETNELLLTVTREWIDRWTEVCDAFQHIEEYRLEFLKTNMWAYANIISTACVKDDESCEKIRLTLENTNIDEDITQMIQNEGTGTTIPPLPEFNDYFKENGLNYDIDQLISKAPSYPYSSSRPSASASLASSPTRSAFRPKTSETVSSEVVSSPPTSPLHSPVKPVSNEQVEQVTEVELSIPVPSIQEAESQKPVLTGSSMRRPSVTSPTFEVAARPLTSMDVRSSHNAETEVQAIPAATDISPEVKEGKNSENAITKDNDDIILSSQLQPTATGSRSSRLSFSRHGHGSQTSLGSIKRKSIMERMGRPTSPFMGSSFSNMGSRSTSPTKEGFASNQHATGASVQSDELEDIDPRANVVLNVGPNMLSVGEAPVESTSKEEDKDVPDPIANAMAELSSSMRRRQSTSVDDEAPVSLSKTSSSTRLNGLGYHSRNTSIASDIDGVPKKSTLGAPPAAHTSAQMQRMSNSFASQTKQVFGEQRTENSARESLRHSRSNMSRSPSPMLSRRSSTLRPSFERSASSLSVRQSDVVSPAPSTRARGQSVSGQQRPSSSMSLYGEYNKSQPQLSMQRSVSPNPLGPNRRSSSVLQSQKSTSSNTSNRNNGGYSGSRPSSEMGHRYGSMSGRSMRQVSQRSTSRARSPEPTNRNSVQSKNVDPRATFTAEGEPILGYVIALYDYQAQIPEEISFQKGDTLMVLRTQEDGWWDGEIINVPNSKRGLFPSNFVQTV
modifications: hyperphosphorylated at many sites (sites not given; Supp. Table 1)

Tests used:
[1] = molecular target: the molecule itself; assay: negative stain electron microscopy
AUC = molecular target: the molecule itself; assay: AUC

| Protein | binding result [1] | stoichiometry N (AUC) |
| --- | --- | --- |
| B1 | binds |  |
| B2 |  | 2 and 4 |
